Literature values as cited in article PMC6176727.

Experiments:
[1] = molecular target: CLV1 ectodomain (Arabidopsis thaliana) (UniProt Q9SYQ8)
[2] = molecular target: CLV1 (Arabidopsis thaliana) (UniProt Q9SYQ8)

Question: For “CLV3p (13-amino-acid) (from UniProt Q9XF04)”, which Kd [1] is on record?
Answer: 1 nM

Question: And the Kd [2]?
Answer: 280 nM
